Non-standard residues stand in square brackets, D forms with d. 1Nal = N[C@@H](Cc1cccc2ccccc12)C(=O)O; Nle = CCCC[C@H](N)C(=O)O; Aib = CC(C)(N)C(=O)O
T1: RXFP1 receptor (UniProt Q9HBX9 1-757, limits assumed)
T1 sequence (looked up): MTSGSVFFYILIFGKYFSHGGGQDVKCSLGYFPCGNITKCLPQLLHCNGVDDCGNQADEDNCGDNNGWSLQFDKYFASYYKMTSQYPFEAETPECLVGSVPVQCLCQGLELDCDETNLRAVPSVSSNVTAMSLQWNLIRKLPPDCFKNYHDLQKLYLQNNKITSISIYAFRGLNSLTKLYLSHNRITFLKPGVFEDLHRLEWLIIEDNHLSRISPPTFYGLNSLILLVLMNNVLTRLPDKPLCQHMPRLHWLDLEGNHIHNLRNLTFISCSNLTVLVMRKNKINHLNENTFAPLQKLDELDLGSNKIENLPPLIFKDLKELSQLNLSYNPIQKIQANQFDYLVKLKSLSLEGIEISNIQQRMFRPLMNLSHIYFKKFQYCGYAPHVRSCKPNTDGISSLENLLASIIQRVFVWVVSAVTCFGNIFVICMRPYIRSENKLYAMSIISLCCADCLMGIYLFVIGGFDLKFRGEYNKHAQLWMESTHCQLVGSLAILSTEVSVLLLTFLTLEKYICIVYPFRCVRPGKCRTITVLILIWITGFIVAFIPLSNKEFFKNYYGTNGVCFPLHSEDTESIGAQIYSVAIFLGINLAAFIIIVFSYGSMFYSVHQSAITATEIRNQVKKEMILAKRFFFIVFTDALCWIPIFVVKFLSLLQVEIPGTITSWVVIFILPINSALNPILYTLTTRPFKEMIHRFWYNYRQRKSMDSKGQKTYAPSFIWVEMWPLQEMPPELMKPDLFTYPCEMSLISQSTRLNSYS


Biological target: T1, RXFP1 receptor
Experiment: cell-based or functional assay

| Binder | cAMP assay in OVCAR 5 cells EC50 | cAMP assay in OVCAR 5 cells Emax |
| --- | --- | --- |
| Ac-LEGREKVRAQI[Aib][Aib]EGQSTWS[Aib]RKK-NH2 (SMILES CC[C@H](C)[C@H](NC(=O)[C@H](CCC(N)=O)NC(=O)[C@H](C)NC(=O)[C@H](CCCNC(=N)N)NC(=O)[C@@H](NC(=O)[C@H](CCCCN)NC(=O)[C@H](CCC(=O)O)NC(=O)[C@H](CCCNC(=N)N)NC(=O)CNC(=O)[C@H](CCC(=O)O)NC(=O)[C@H](CC(C)C)NC(C)=O)C(C)C)C(=O)NC(C)(C)C(=O)NC(C)(C)C(=O)N[C@@H](CCC(=O)O)C(=O)NCC(=O)N[C@@H](CCC(N)=O)C(=O)N[C@@H](CO)C(=O)N[C@H](C(=O)N[C@@H](Cc1c[nH]c2ccccc12)C(=O)N[C@@H](CO)C(=O)NC(C)(C)C(=O)N[C@@H](CCCNC(=N)N)C(=O)N[C@@H](CCCCN)C(=O)N[C@@H](CCCCN)C(N)=O)[C@@H](C)O) [SEQ ID NO: 35] | 15.8 nM |  |
| Ac-LEGREKVRAQI[Aib][Aib]EG[Nle]SK[1Nal]SKR-NH2 (SMILES CCCC[C@H](NC(=O)CNC(=O)[C@H](CCC(=O)O)NC(=O)C(C)(C)NC(=O)C(C)(C)NC(=O)[C@@H](NC(=O)[C@H](CCC(N)=O)NC(=O)[C@H](C)NC(=O)[C@H](CCCNC(=N)N)NC(=O)[C@@H](NC(=O)[C@H](CCCCN)NC(=O)[C@H](CCC(=O)O)NC(=O)[C@H](CCCNC(=N)N)NC(=O)CNC(=O)[C@H](CCC(=O)O)NC(=O)[C@H](CC(C)C)NC(C)=O)C(C)C)[C@@H](C)CC)C(=O)N[C@@H](CO)C(=O)N[C@@H](CCCCN)C(=O)N[C@@H](Cc1cccc2ccccc12)C(=O)N[C@@H](CO)C(=O)N[C@@H](CCCCN)C(=O)N[C@@H](CCCNC(=N)N)C(N)=O) [SEQ ID NO: 36] | 127 nM | 103% |
| Ac-LEGREKVRK(Ac)[Aib]I[Aib][Aib]EG[Nle]STWS[Aib]RKK-NH2 (SMILES CCCC[C@H](NC(=O)CNC(=O)[C@H](CCC(=O)O)NC(=O)C(C)(C)NC(=O)C(C)(C)NC(=O)[C@@H](NC(=O)C(C)(C)NC(=O)[C@H](CCCCNC(C)=O)NC(=O)[C@H](CCCNC(=N)N)NC(=O)[C@@H](NC(=O)[C@H](CCCCN)NC(=O)[C@H](CCC(=O)O)NC(=O)[C@H](CCCNC(=N)N)NC(=O)CNC(=O)[C@H](CCC(=O)O)NC(=O)[C@H](CC(C)C)NC(C)=O)C(C)C)[C@@H](C)CC)C(=O)N[C@@H](CO)C(=O)N[C@H](C(=O)N[C@@H](Cc1c[nH]c2ccccc12)C(=O)N[C@@H](CO)C(=O)NC(C)(C)C(=O)N[C@@H](CCCNC(=N)N)C(=O)N[C@@H](CCCCN)C(=O)N[C@@H](CCCCN)C(N)=O)[C@@H](C)O) [SEQ ID NO: 34] | 68.7 nM | 96% |
| Ac-LEGREKVRAK(Ac)I[Aib][Aib]EG[Nle]ST[1Nal]S[Aib]RKK(Ac)-NH2 (SMILES CCCC[C@H](NC(=O)CNC(=O)[C@H](CCC(=O)O)NC(=O)C(C)(C)NC(=O)C(C)(C)NC(=O)[C@@H](NC(=O)[C@H](CCCCNC(C)=O)NC(=O)[C@H](C)NC(=O)[C@H](CCCNC(=N)N)NC(=O)[C@@H](NC(=O)[C@H](CCCCN)NC(=O)[C@H](CCC(=O)O)NC(=O)[C@H](CCCNC(=N)N)NC(=O)CNC(=O)[C@H](CCC(=O)O)NC(=O)[C@H](CC(C)C)NC(C)=O)C(C)C)[C@@H](C)CC)C(=O)N[C@@H](CO)C(=O)N[C@H](C(=O)N[C@@H](Cc1cccc2ccccc12)C(=O)N[C@@H](CO)C(=O)NC(C)(C)C(=O)N[C@@H](CCCNC(=N)N)C(=O)N[C@@H](CCCCN)C(=O)N[C@@H](CCCCNC(C)=O)C(N)=O)[C@@H](C)O) [SEQ ID NO: 29] | 13.8 nM | 98% |
| Ac-LEGREKVRK(Ac)QI[Aib][Aib]EG[Nle]STWS[Aib]RKK-NH2 (SMILES CCCC[C@H](NC(=O)CNC(=O)[C@H](CCC(=O)O)NC(=O)C(C)(C)NC(=O)C(C)(C)NC(=O)[C@@H](NC(=O)[C@H](CCC(N)=O)NC(=O)[C@H](CCCCNC(C)=O)NC(=O)[C@H](CCCNC(=N)N)NC(=O)[C@@H](NC(=O)[C@H](CCCCN)NC(=O)[C@H](CCC(=O)O)NC(=O)[C@H](CCCNC(=N)N)NC(=O)CNC(=O)[C@H](CCC(=O)O)NC(=O)[C@H](CC(C)C)NC(C)=O)C(C)C)[C@@H](C)CC)C(=O)N[C@@H](CO)C(=O)N[C@H](C(=O)N[C@@H](Cc1c[nH]c2ccccc12)C(=O)N[C@@H](CO)C(=O)NC(C)(C)C(=O)N[C@@H](CCCNC(=N)N)C(=O)N[C@@H](CCCCN)C(=O)N[C@@H](CCCCN)C(N)=O)[C@@H](C)O) [SEQ ID NO: 33] | 86.3 nM | 105% |
| Ac-LEGREKVRAK(Ac)I[Aib][Aib]EG[Nle]STWS[Aib]RKQ-NH2 (SMILES CCCC[C@H](NC(=O)CNC(=O)[C@H](CCC(=O)O)NC(=O)C(C)(C)NC(=O)C(C)(C)NC(=O)[C@@H](NC(=O)[C@H](CCCCNC(C)=O)NC(=O)[C@H](C)NC(=O)[C@H](CCCNC(=N)N)NC(=O)[C@@H](NC(=O)[C@H](CCCCN)NC(=O)[C@H](CCC(=O)O)NC(=O)[C@H](CCCNC(=N)N)NC(=O)CNC(=O)[C@H](CCC(=O)O)NC(=O)[C@H](CC(C)C)NC(C)=O)C(C)C)[C@@H](C)CC)C(=O)N[C@@H](CO)C(=O)N[C@H](C(=O)N[C@@H](Cc1c[nH]c2ccccc12)C(=O)N[C@@H](CO)C(=O)NC(C)(C)C(=O)N[C@@H](CCCNC(=N)N)C(=O)N[C@@H](CCCCN)C(=O)N[C@@H](CCC(N)=O)C(N)=O)[C@@H](C)O) [SEQ ID NO: 31] | 51.7 nM | 96% |
| Ac-LEGREKVRAK(Ac)I[Aib][Aib]EG[Nle]STWS[Aib]RKL-NH2 (SMILES CCCC[C@H](NC(=O)CNC(=O)[C@H](CCC(=O)O)NC(=O)C(C)(C)NC(=O)C(C)(C)NC(=O)[C@@H](NC(=O)[C@H](CCCCNC(C)=O)NC(=O)[C@H](C)NC(=O)[C@H](CCCNC(=N)N)NC(=O)[C@@H](NC(=O)[C@H](CCCCN)NC(=O)[C@H](CCC(=O)O)NC(=O)[C@H](CCCNC(=N)N)NC(=O)CNC(=O)[C@H](CCC(=O)O)NC(=O)[C@H](CC(C)C)NC(C)=O)C(C)C)[C@@H](C)CC)C(=O)N[C@@H](CO)C(=O)N[C@H](C(=O)N[C@@H](Cc1c[nH]c2ccccc12)C(=O)N[C@@H](CO)C(=O)NC(C)(C)C(=O)N[C@@H](CCCNC(=N)N)C(=O)N[C@@H](CCCCN)C(=O)N[C@@H](CC(C)C)C(N)=O)[C@@H](C)O) [SEQ ID NO: 32] | 38.6 nM | 95% |
| Ac-LEGREKVRAK(Ac)I[Aib][Aib]EG[Nle]STWS[Aib]RKK(Ac)K(Ac)-NH2 (SMILES CCCC[C@H](NC(=O)CNC(=O)[C@H](CCC(=O)O)NC(=O)C(C)(C)NC(=O)C(C)(C)NC(=O)[C@@H](NC(=O)[C@H](CCCCNC(C)=O)NC(=O)[C@H](C)NC(=O)[C@H](CCCNC(=N)N)NC(=O)[C@@H](NC(=O)[C@H](CCCCN)NC(=O)[C@H](CCC(=O)O)NC(=O)[C@H](CCCNC(=N)N)NC(=O)CNC(=O)[C@H](CCC(=O)O)NC(=O)[C@H](CC(C)C)NC(C)=O)C(C)C)[C@@H](C)CC)C(=O)N[C@@H](CO)C(=O)N[C@H](C(=O)N[C@@H](Cc1c[nH]c2ccccc12)C(=O)N[C@@H](CO)C(=O)NC(C)(C)C(=O)N[C@@H](CCCNC(=N)N)C(=O)N[C@@H](CCCCN)C(=O)N[C@@H](CCCCNC(C)=O)C(=O)N[C@@H](CCCCNC(C)=O)C(N)=O)[C@@H](C)O) [SEQ ID NO: 28] | 22.5 nM | 92% |
| Ac-LEGREKVRAQI[Aib][Aib]EGMSTWS[Aib]RKK-NH2 (SMILES CC[C@H](C)[C@H](NC(=O)[C@H](CCC(N)=O)NC(=O)[C@H](C)NC(=O)[C@H](CCCNC(=N)N)NC(=O)[C@@H](NC(=O)[C@H](CCCCN)NC(=O)[C@H](CCC(=O)O)NC(=O)[C@H](CCCNC(=N)N)NC(=O)CNC(=O)[C@H](CCC(=O)O)NC(=O)[C@H](CC(C)C)NC(C)=O)C(C)C)C(=O)NC(C)(C)C(=O)NC(C)(C)C(=O)N[C@@H](CCC(=O)O)C(=O)NCC(=O)N[C@@H](CCSC)C(=O)N[C@@H](CO)C(=O)N[C@H](C(=O)N[C@@H](Cc1c[nH]c2ccccc12)C(=O)N[C@@H](CO)C(=O)NC(C)(C)C(=O)N[C@@H](CCCNC(=N)N)C(=O)N[C@@H](CCCCN)C(=O)N[C@@H](CCCCN)C(N)=O)[C@@H](C)O) [SEQ ID NO: 4] | 14.1 nM | 99% |
